Patent US20260062466A1 (WASHINGTON UNIVERSITY, published 2026)

How the values were obtained:
CHIKV-LR 2006 (virus) = CHIKV-LR 2006 (virus) (Chikungunya virus strain LR 2006); assay: cell-based or functional assay
CHIKV-37997 (virus) = CHIKV-37997 (virus) (Chikungunya virus strain 37997, UniProt Q5XXP3 326-748; Q5XXP3 810-1248); assay: cell-based or functional assay
Chain of CHIKV-37997 (virus) (Q5XXP3 326-748 limits assumed, chain 1 of 2): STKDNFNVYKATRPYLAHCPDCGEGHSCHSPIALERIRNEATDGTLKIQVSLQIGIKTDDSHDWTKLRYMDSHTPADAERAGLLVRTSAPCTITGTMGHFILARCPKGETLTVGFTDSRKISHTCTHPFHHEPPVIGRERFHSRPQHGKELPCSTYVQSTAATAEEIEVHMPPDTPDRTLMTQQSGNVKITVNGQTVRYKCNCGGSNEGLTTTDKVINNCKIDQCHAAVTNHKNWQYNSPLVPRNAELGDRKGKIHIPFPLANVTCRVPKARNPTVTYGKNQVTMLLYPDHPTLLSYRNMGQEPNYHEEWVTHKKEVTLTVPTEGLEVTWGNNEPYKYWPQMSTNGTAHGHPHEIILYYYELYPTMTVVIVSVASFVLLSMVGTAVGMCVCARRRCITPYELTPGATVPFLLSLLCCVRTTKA
Chain of CHIKV-37997 (virus) (Q5XXP3 810-1248 limits assumed, chain 2 of 2): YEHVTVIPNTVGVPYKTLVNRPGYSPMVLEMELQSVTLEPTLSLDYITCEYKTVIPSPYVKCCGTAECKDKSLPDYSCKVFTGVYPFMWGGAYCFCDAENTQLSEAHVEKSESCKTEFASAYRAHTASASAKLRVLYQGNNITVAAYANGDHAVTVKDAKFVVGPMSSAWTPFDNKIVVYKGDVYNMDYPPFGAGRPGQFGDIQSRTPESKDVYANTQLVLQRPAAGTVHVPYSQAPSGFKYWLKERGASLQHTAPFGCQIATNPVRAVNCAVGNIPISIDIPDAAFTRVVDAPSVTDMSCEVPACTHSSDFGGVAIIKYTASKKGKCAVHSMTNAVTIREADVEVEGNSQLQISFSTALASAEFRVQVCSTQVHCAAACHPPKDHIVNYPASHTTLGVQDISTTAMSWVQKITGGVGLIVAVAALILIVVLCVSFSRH

Row | Binder | FRNT neutralisation, LR 2006 EC50 (CHIKV-LR 2006 (virus)) [mg/L] | FRNT neutralisation, 37997 EC50 (CHIKV-37997 (virus)) [mg/L]
1 | 516.A10 (antibody, V domains shown) VH: QVQMVESGGGVVQPGRSLRLSCAASGFTFSSYPIHWVRQVPGKGLEWVAVISYDGSNKYYADSVKGRFTISRDNSKNTLYLQMNSLRPEDTAVYFCARGRGDFELNSFDYWGQGTLVTVSS VL: EIVLTQSPGTLSLSPGERATLSCRASQSVSSSYLGWYQQKLGQAPRLLIYGASSRATGIPDRFSGSGSGTDFTLTISRLEPEDFAVYYCQQYGSTPFTFGPGTKVDIK | 0.004 | 0.128
2 | 506.C01 (antibody, V domains shown) VH: QVQLQESGPGLVKPSQTLSLTCTVSGGSISSDDYYWTWIRLPPGKGLEWIGYIFYTGGTYYNPSLKSRVTISLDRSKNQFSLKLSSVTAADTAVYFCARAPETYCSTTNCYKGYFDSWGQGTLVTVSS VL: DIQMTQSPSSVSASVGDRVTITCRASQGISSWLGWYQQKPGKAPKLLIYAASSLQSGVPSRFSGSGSGTDFTLTISSLQPEDFATYYCQQANSFPRTFGQGTKVEIK | 0.008 | 0.002
3 | 506.A08 (antibody, V domains shown) VH: EEQLVESGGGLVQPGGSLRLSCAASGFTFSSYSMNWVRQAPGKGLEWVSYISSSSSTIHYADSVKGRFTISRDNAKNSLYLQMNSLRAEDTAVYYCAREGNSGYEPLDYWGQGTLVTVSS VL: not shown | 0.11 | 0.072
